In one data set the test system is Jurkat cells. The experiment in a line: GFP expression after delivery of LINE-1 plasmid or mRNA with CMV-GFP antisense reporter. It is filed as cell-based. The conditions noted are these: 4 days post electroporation, relative to mock, FIG. 17B. The procedure: To test retrotransposition in immune cells, LINE-1 plasmid and mRNA were tested with the CMV-GFP antisense reporter cargo by electroporating into Jurkat cells, which is a T cell lymphoma line (FIG. 17A-FIG. 17B). Mock set were electroporated with a plasmid with no GFP sequence. Fold increase is reported relative to mock transfected cells.

The next data set has as its system HEK293T cells. The data set can be described thus: Expression of CD5 binder (ATAK) receptor and GFP by flow cytometry with labeled CD5 after LINE-1 plasmid transfection. It is filed as cell-based, human. An excerpt:
HEK 293 cells were transfected with a plasmid having the LINE-1 elements, with a 3 kb cargo sequence encoding recombinant receptor protein CD5-intron-fcr-PI3K (ATAK) that is interrupted by an intron sequence in the CD5 binding domain. The cargo is a chimeric receptor that has a CD5 binding extracellular domain, a FCRγ transmembrane domain, and an intracellular domain having a PI3-kinase recruitment domain. As in the design of the experiment above, the ATAK receptor cannot express unless it is integrated in the genome and the intron is spliced off. Following transfection in HEK293T cells, the receptor expression is detected using labeled CD5 as bait for the CD5 binding extracellular domain. Results shown in FIGS. 9B and 9C show successful integration and expression of the receptor. 36.5% cells were ATAK (CD5 binder) positive (FIG. 9C).
In a further modification, a LINE-1 construct (LINE-1plasmid-cd5_fcr-pi3k_t2a_GFPintron) with a longer 3.7 kb cargo sequence encoding a non-interrupted recombinant receptor protein CD5-intron-fcr-PI3K and an interrupted GFP sequence with a T2A sequence between receptor and the GFP sequences (FIG. 10A). […] Exemplary fluorescence identification of GFP and fluorescent tagged CD5 binding and gating quantitation for experimental runs are shown in FIG. 10C and FIG. 10D.
The cargo GFP gene in the previous construct was replaced with intron interrupted CD5-FcR-P13K CAR-M sequence (Morrissey et al., 2018). The CD5 binder expression was measured by flow cytometry using a Alexa647-conjugated CD5 protein such that retrotransposed cells are CD5-AF647 positive (red histogram) compared with a plasmid transfected negative control cell population (grey histogram) (FIG. 30).
The cargo gene length was extended by adding the intron-interrupted GFP gene after the T2A sequence downstream of the CD5-FcR-PI3K CAR-M sequence (FIG. 31). The CD5 binder expression was measured by flow cytometry using a Alexa647-conjugated CD5 protein. […]
A general note: In flow cytometry, cells or beads pass a laser one at a time.

B1: LINE-1 plasmid GFP: plasmid with LINE-1 ORF1, ORF2 and CMV promoter driven split GFP gene in reverse orientation in the 3′UTR (SEQ ID NO: 37) (nucleic acid)
DNA: CGGCCGCGGGGGGAGGAGCCAAGATGGCCGAATAGGAACAGCTCCGGTCTACAGCTCCCAGCGTGAGCGACGCAGAAGACGGTGATTTCTGCATTTCCATCTGAGGTACCGGGTTCATCTCACTAGGGAGTGCCAGACAGTGGGCGCAGGCCAGTGTGTGTGCGCACCGTGCGCGAGCCGAAGCAGGGCGAGGCATTGCCTCACCTGGGAAGCGCAAGGGGTCAGGGAGTTCCCTTTCCGAGTCAAAGAAAGGGGTGACGGACGCACCTGGAAAATCGGGTCACTCCCACCCGAATATTGCGCTTTTCAGACCGGCTTAAGAAACGGCGCACCACGAGACTATATCCCACACCTGGCTCGGAGGGTCCTACGCCCACGGAATCTCGCTGATTGCTAGCACAGCAGTCTGAGATCAAACTGCAAGGCGGCAACGAGGCTGGGGGAGGGGCGCCCGCCATTGCCCAGGCTTGCTTAGGTAAACAAAGCAGCAGGGAAGCTCGAACTGGGTGGAGCCCACCACAGCTCAAGGAGGCCTGCCTGCCTCTGTAGGCTCCACCTCTGGGGGCAGGGCACAGACAAACAAAAAGACAGCAGTAACCTCTGCAGACTTAAGTGTCCCTGTCTGACAGCTTTGAAGAGAGCAGTGGTTCTCCCAGCACGCAGCTGGAGATCTGAGAACGGGCAGACTGCCTCCTCAAGTGGGTCCCTGACCCCTGACCCCCGAGCAGCCTAACTGGGAGGCACCCCCCAGCAGGGGCACACTGACACCTCACACGGCAGGGTATTCCAACAGACCTGCAGCTGAGGGTCCTGTCTGTTAGAAGGAAAACTAACAACCAGAAAGGACATCTACACCGAAAACCCATCTGTACATCACCATCATCAAAGACCAAAAGTAGATAAAACCACAAAGATGGGGAAAAAACAGAACAGAAAAACTGGAAACTCTAAAACGCAGAGCGCCTCTCCTCCTCCAAAGGAACGCAGTTCCTCACCAGCAACAGAACAAAGCTGGATGGAGAATGATTTTGATGAGCTGAGAGAAGAAGGCTTCAGACGATCAAATTACTCTGAGCTACGGGAGGACATTCAAACCAAAGGCAAAGAAGTTGAAAACTTTGAAAAAAATTTAGAAGAATGTATAACTAGAATAACCAATACAGAGAAGTGCTTAAAGGAGCTGATGGAGCTGAAAACCAAGGCTCGAGAACTACGTGAAGAATGCAGAAGCCTCAGGAGCCGATGCGATCAACTGGAAGAAAGGGTATCAGCAATGGAAGATGAAATGAATGAAATGAAGCGAGAAGGGAAGTTTAGAGAAAAAAGAATAAAAAGAAATGAGCAAAGCCTCCAAGAAATATGGGACTATGTGAAAAGACCAAATCTACGTCTGATTGGTGTACCTGAAAGTGATGTGGAGAATGGAACCAA
With B1, the GFP expression entry in the data set with Jurkat cells is “successful GFP expression”.

B2: CD5-intron-fcr-PI3K: LINE-1 plasmid with 3 kb cargo encoding intron-interrupted CD5 binding chimeric receptor (ATAK) (SEQ ID NO: 39) (nucleic acid)
DNA: CGGCCGCGGGGGGAGGAGCCAAGATGGCCGAATAGGAACAGCTCCGGTCTACAGCTCCCAGCGTGAGCGACGCAGAAGACGGTGATTTCTGCATTTCCATCTGAGGTACCGGGTTCATCTCACTAGGGAGTGCCAGACAGTGGGCGCAGGCCAGTGTGTGTGCGCACCGTGCGCGAGCCGAAGCAGGGCGAGGCATTGCCTCACCTGGGAAGCGCAAGGGGTCAGGGAGTTCCCTTTCCGAGTCAAAGAAAGGGGTGACGGACGCACCTGGAAAATCGGGTCACTCCCACCCGAATATTGCGCTTTTCAGACCGGCTTAAGAAACGGCGCACCACGAGACTATATCCCACACCTGGCTCGGAGGGTCCTACGCCCACGGAATCTCGCTGATTGCTAGCACAGCAGTCTGAGATCAAACTGCAAGGCGGCAACGAGGCTGGGGGAGGGGCGCCCGCCATTGCCCAGGCTTGCTTAGGTAAACAAAGCAGCAGGGAAGCTCGAACTGGGTGGAGCCCACCACAGCTCAAGGAGGCCTGCCTGCCTCTGTAGGCTCCACCTCTGGGGGCAGGGCACAGACAAACAAAAAGACAGCAGTAACCTCTGCAGACTTAAGTGTCCCTGTCTGACAGCTTTGAAGAGAGCAGTGGTTCTCCCAGCACGCAGCTGGAGATCTGAGAACGGGCAGACTGCCTCCTCAAGTGGGTCCCTGACCCCTGACCCCCGAGCAGCCTAACTGGGAGGCACCCCCCAGCAGGGGCACACTGACACCTCACACGGCAGGGTATTCCAACAGACCTGCAGCTGAGGGTCCTGTCTGTTAGAAGGAAAACTAACAACCAGAAAGGACATCTACACCGAAAACCCATCTGTACATCACCATCATCAAAGACCAAAAGTAGATAAAACCACAAAGATGGGGAAAAAACAGAACAGAAAAACTGGAAACTCTAAAACGCAGAGCGCCTCTCCTCCTCCAAAGGAACGCAGTTCCTCACCAGCAACAGAACAAAGCTGGATGGAGAATGATTTTGATGAGCTGAGAGAAGAAGGCTTCAGACGATCAAATTACTCTGAGCTACGGGAGGACATTCAAACCAAAGGCAAAGAAGTTGAAAACTTTGAAAAAAATTTAGAAGAATGTATAACTAGAATAACCAATACAGAGAAGTGCTTAAAGGAGCTGATGGAGCTGAAAACCAAGGCTCGAGAACTACGTGAAGAATGCAGAAGCCTCAGGAGCCGATGCGATCAACTGGAAGAAAGGGTATCAGCAATGGAAGATGAAATGAATGAAATGAAGCGAGAAGGGAAGTTTAGAGAAAAAAGAATAAAAAGAAATGAGCAAAGCCTCCAAGAAATATGGGACTATGTGAAAAGACCAAATCTACGTCTGATTGGTGTACCTGAAAGTGATG
Take B2: the “cells ATAK (CD5 binder) positive” value with HEK293T cells (HEK293T cells transfected with LINE-1 plasmid, 3 kb cargo, labeled CD5 as bait, FIG. 9C) turned out to be 36.5%.

B3: LINE-1plasmid-cd5_fcr-pi3k_t2a_GFPintron: LINE-1 plasmid with 3.7 kb cargo: CD5 binding receptor, T2A, intron-interrupted GFP (SEQ ID NO: 40) (nucleic acid)
DNA: CGGCCGCGGGGGGAGGAGCCAAGATGGCCGAATAGGAACAGCTCCGGTCTACAGCTCCCAGCGTGAGCGACGCAGAAGACGGTGATTTCTGCATTTCCATCTGAGGTACCGGGTTCATCTCACTAGGGAGTGCCAGACAGTGGGCGCAGGCCAGTGTGTGTGCGCACCGTGCGCGAGCCGAAGCAGGGCGAGGCATTGCCTCACCTGGGAAGCGCAAGGGGTCAGGGAGTTCCCTTTCCGAGTCAAAGAAAGGGGTGACGGACGCACCTGGAAAATCGGGTCACTCCCACCCGAATATTGCGCTTTTCAGACCGGCTTAAGAAACGGCGCACCACGAGACTATATCCCACACCTGGCTCGGAGGGTCCTACGCCCACGGAATCTCGCTGATTGCTAGCACAGCAGTCTGAGATCAAACTGCAAGGCGGCAACGAGGCTGGGGGAGGGGCGCCCGCCATTGCCCAGGCTTGCTTAGGTAAACAAAGCAGCAGGGAAGCTCGAACTGGGTGGAGCCCACCACAGCTCAAGGAGGCCTGCCTGCCTCTGTAGGCTCCACCTCTGGGGGCAGGGCACAGACAAACAAAAAGACAGCAGTAACCTCTGCAGACTTAAGTGTCCCTGTCTGACAGCTTTGAAGAGAGCAGTGGTTCTCCCAGCACGCAGCTGGAGATCTGAGAACGGGCAGACTGCCTCCTCAAGTGGGTCCCTGACCCCTGACCCCCGAGCAGCCTAACTGGGAGGCACCCCCCAGCAGGGGCACACTGACACCTCACACGGCAGGGTATTCCAACAGACCTGCAGCTGAGGGTCCTGTCTGTTAGAAGGAAAACTAACAACCAGAAAGGACATCTACACCGAAAACCCATCTGTACATCACCATCATCAAAGACCAAAAGTAGATAAAACCACAAAGATGGGGAAAAAACAGAACAGAAAAACTGGAAACTCTAAAACGCAGAGCGCCTCTCCTCCTCCAAAGGAACGCAGTTCCTCACCAGCAACAGAACAAAGCTGGATGGAGAATGATTTTGATGAGCTGAGAGAAGAAGGCTTCAGACGATCAAATTACTCTGAGCTACGGGAGGACATTCAAACCAAAGGCAAAGAAGTTGAAAACTTTGAAAAAAATTTAGAAGAATGTATAACTAGAATAACCAATACAGAGAAGTGCTTAAAGGAGCTGATGGAGCTGAAAACCAAGGCTCGAGAACTACGTGAAGAATGCAGAAGCCTCAGGAGCCGATGCGATCAACTGGAAGAAAGGGTATCAGCAATGGAAGATGAAATGAATGAAATGAAGCGAGAAGGGAAGTTTAGAGAAAAAAGAATAAAAAGAAATGAGCAAAGCCTCCAAGAAATATGGGACTATGTGAAAAGACCAAATCTACGTCTGATTGGTGTACCTGA
Take B3: in the data set with HEK293T cells (3.7 kb cargo, flow cytometry signal in Q2, Alexa647-conjugated CD5 protein, FIG. 31), the “cells express both CAR-M and GFP proteins” value stood at 10.8%. The “increase of the ATAK receptor and GFP double-positive cells” value in the data set on HEK293T cells (3.7 kb cargo, normalized against mock-transfected cells, FIG. 10B) was “greater than 10 fold”.

For the origin of these results see patent publication US12319925B2, “Methods and compositions for genomic integration” (Myeloid Therapeutics, Inc., priority 2021, dated 2025).
